# Measured values published in patent publication US20220204649A1 (SYSMEX, published 2022).
# Target: T1, HER2 (UniProt P04626 23-652, limits assumed)
# T1 construct: also called antigen of the anti-HER2 antibody
# Assay: SPR (Biacore 8K), as in Example 1
# Description: (§1) Affinity of the prepared variants was measured using Biacore (registered trademark) 8K (GE Healthcare) in the same manner as in Example 1.
row,Binder,Kd [nM]
1,"68, 70, 72 variant of humanized anti-HER2 antibody (Fab) (Fab, V domains shown) VH: EVQLVESGGGLVQPGGSLRLSCAASGFNIKDTYIHWVRQAPGKGLEWVARIYPTNGYTRYADSVKGRFRIRARTSKNTAYLQMNSLRAEDTAVYYCSRWGGDGFYAMDYWGQGTLVTVSS VL: not shown",0.0208
2,"72, 77, 79 variant of humanized anti-HER2 antibody (Fab) (Fab, V domains shown, also called Heavy chain 72, 77, 79 variant) VH: EVQLVESGGGLVQPGGSLRLSCAASGFNIKDTYIHWVRQAPGKGLEWVARIYPTNGYTRYADSVKGRFTISARTSKNRARLQMNSLRAEDTAVYYCSRWGGDGFYAMDYWGQGTLVTVSS VL: not shown",0.00505

# Next, values leading:
row,Kd [nM],Binder
1,0.0443,"74, 75, 77 variant of humanized anti-HER2 antibody (Fab) (Fab, V domains shown) VH: EVQLVESGGGLVQPGGSLRLSCAASGFNIKDTYIHWVRQAPGKGLEWVARIYPTNGYTRYADSVKGRFTISADTRRNRAYLQMNSLRAEDTAVYYCSRWGGDGFYAMDYWGQGTLVTVSS VL: not shown"
2,0.0338,"79, 81, 82A variant of humanized anti-HER2 antibody (Fab) (Fab, V domains shown) VH: EVQLVESGGGLVQPGGSLRLSCAASGFNIKDTYIHWVRQAPGKGLEWVARIYPTNGYTRYADSVKGRFTISADTSKNTARLRMRSLRAEDTAVYYCSRWGGDGFYAMDYWGQGTLVTVSS VL: not shown"
3,0.0211,"84, 85, 87 variant of humanized anti-HER2 antibody (Fab) (Fab, V domains shown) VH: EVQLVESGGGLVQPGGSLRLSCAASGFNIKDTYIHWVRQAPGKGLEWVARIYPTNGYTRYADSVKGRFTISADTSKNTAYLQMNSLRRRDRAVYYCSRWGGDGFYAMDYWGQGTLVTVSS VL: not shown"

# Target: T1, HER2
# Assay: SPR (Biacore 8K), Example 3, as in Example 1
# Description: as §1
row,Binder,Kd [nM]
1,"light chain 63, 65, 67/heavy chain 72, 77, 79 variant of the anti-HER2 antibody (Fab, V domains shown) VH: EVQLVESGGGLVQPGGSLRLSCAASGFNIKDTYIHWVRQAPGKGLEWVARIYPTNGYTRYADSVKGRFTISARTSKNRARLQMNSLRAEDTAVYYCSRWGGDGFYAMDYWGQGTLVTVSS VL: DIQMTQSPSSLSASVGDRVTITCRASQDVNTAVAWYQQKPGKAPKLLIYSASFLYSGVPSRFRGRRRGTDFTLTISSLQPEDFATYYCQQHYTTPPTFGQGTKVEIKR",0.0126
2,"light chain 63, 65, 67/heavy chain 82B, 83, 84 variant of the anti-HER2 antibody (Fab, V domains shown) VH: not shown VL: DIQMTQSPSSLSASVGDRVTITCRASQDVNTAVAWYQQKPGKAPKLLIYSASFLYSGVPSRFRGRRRGTDFTLTISSLQPEDFATYYCQQHYTTPPTFGQGTKVEIKR",0.0357
3,"72, 77, 79 variant of humanized anti-HER2 antibody (Fab) (Fab, V domains shown, also called Heavy chain 72, 77, 79 variant) VH: EVQLVESGGGLVQPGGSLRLSCAASGFNIKDTYIHWVRQAPGKGLEWVARIYPTNGYTRYADSVKGRFTISARTSKNRARLQMNSLRAEDTAVYYCSRWGGDGFYAMDYWGQGTLVTVSS VL: not shown",0.0321
